Experimental data published in patent US10500249B2, “Compositions and methods for preventing or treating diseases, conditions, or processes characterized by aberrant fibroblast proliferation and extracellular matrix deposition” (MOERAE MATRIX, INC., priority 2014, dated 2019).

How the values were obtained:
Experiment in all cases: Kinase Profiling Assay
Format in all cases: biochemical
Conditions in all cases: 100 μM
[1] = biological target: AMPKα1 (h) (Homo sapiens, UniProt Q13131)
How it was run: (§1)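 In this 266-kinase specificity panel, every measurement was duplicated. Transfer of labeled phosphate from ATP to a cationic substrate was quantified after the substrate adhered to an anionic filter membrane and was scintillation-counted, then related to a full-activity control.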

[2] = biological target: T1, EphB1 (h) (Homo sapiens, UniProt P54762)
T1 sequence (P54762 18-984): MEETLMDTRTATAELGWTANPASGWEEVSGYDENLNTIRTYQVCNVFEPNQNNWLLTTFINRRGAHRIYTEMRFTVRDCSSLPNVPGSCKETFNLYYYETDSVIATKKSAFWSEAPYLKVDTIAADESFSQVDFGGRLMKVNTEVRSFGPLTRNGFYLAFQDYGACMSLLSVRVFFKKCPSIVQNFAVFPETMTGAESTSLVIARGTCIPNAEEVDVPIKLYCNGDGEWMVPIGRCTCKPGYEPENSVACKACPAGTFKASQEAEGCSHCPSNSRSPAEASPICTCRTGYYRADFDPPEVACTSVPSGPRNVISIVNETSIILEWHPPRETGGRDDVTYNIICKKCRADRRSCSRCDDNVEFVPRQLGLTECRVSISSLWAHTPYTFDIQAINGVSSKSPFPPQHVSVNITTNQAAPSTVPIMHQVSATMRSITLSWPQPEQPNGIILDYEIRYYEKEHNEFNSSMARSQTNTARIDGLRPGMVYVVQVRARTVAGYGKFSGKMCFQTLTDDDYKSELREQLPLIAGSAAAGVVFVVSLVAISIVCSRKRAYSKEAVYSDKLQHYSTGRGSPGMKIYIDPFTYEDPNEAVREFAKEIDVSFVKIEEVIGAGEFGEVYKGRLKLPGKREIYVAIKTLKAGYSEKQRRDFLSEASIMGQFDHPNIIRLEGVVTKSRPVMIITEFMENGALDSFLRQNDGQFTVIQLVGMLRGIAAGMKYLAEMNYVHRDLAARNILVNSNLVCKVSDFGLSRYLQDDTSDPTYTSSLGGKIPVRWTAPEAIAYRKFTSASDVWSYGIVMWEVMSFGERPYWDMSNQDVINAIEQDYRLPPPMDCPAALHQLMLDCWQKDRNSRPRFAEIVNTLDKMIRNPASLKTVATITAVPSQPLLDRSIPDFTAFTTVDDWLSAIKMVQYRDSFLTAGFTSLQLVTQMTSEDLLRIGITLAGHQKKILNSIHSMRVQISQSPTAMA
How it was run: as §1

[3] = biological target: T2, MuSK (h) (Homo sapiens, UniProt O15146)
T2 construct: purchased Millipore
T2 sequence (O15146 24-869): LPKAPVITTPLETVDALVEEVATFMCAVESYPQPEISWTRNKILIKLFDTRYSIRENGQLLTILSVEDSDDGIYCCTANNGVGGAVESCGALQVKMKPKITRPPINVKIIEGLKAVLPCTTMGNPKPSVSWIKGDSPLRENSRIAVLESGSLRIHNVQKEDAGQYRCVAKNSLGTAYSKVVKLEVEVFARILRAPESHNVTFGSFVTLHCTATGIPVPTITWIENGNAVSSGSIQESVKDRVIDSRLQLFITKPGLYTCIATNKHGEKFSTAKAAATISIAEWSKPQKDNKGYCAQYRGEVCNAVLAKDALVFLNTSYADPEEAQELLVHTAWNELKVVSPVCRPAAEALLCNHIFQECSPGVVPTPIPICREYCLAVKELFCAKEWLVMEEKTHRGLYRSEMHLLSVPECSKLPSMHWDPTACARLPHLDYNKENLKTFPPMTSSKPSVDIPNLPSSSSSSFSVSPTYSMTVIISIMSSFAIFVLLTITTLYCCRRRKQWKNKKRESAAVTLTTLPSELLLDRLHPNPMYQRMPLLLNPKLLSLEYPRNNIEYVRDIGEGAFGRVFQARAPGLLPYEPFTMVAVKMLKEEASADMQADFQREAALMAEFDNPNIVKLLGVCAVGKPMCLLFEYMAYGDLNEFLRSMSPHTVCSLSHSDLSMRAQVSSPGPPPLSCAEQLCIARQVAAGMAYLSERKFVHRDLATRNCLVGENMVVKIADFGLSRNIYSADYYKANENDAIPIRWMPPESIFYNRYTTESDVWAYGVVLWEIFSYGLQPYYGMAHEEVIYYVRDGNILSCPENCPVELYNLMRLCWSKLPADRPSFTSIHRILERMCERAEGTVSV
How it was run: as §1

[4] = biological target: T3, TSSK1 (h) (Homo sapiens, UniProt Q9BXA7)
T3 sequence (Q9BXA7 1-367): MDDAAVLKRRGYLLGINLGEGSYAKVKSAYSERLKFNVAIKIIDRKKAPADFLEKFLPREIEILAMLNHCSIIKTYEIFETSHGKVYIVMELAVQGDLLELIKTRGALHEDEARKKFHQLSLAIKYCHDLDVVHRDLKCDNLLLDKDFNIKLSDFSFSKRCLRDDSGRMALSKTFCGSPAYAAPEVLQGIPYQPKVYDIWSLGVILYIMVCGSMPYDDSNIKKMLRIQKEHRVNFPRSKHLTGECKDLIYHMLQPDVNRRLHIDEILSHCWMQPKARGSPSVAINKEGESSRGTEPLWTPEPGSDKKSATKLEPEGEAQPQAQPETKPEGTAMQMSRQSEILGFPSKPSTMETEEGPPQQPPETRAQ
How it was run: as §1

Chain of AMPKα1 (h) (Q13131 whole entry): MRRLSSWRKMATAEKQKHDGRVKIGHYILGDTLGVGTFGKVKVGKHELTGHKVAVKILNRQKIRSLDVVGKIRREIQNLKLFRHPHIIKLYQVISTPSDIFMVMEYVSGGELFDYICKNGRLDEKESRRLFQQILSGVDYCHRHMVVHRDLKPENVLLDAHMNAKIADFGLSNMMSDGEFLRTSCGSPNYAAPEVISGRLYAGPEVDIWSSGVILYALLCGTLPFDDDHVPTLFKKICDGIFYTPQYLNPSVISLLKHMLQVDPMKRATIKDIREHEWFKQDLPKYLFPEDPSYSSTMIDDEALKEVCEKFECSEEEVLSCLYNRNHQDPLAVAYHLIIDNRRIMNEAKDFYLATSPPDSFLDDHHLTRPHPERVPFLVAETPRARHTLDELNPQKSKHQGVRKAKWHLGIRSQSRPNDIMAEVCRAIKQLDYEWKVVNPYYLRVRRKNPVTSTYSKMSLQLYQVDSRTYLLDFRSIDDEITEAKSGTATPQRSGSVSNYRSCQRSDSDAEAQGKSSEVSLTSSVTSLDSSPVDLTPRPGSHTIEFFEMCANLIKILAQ
Chain of AMPKα1 (h) (Q9Y478 whole entry partner): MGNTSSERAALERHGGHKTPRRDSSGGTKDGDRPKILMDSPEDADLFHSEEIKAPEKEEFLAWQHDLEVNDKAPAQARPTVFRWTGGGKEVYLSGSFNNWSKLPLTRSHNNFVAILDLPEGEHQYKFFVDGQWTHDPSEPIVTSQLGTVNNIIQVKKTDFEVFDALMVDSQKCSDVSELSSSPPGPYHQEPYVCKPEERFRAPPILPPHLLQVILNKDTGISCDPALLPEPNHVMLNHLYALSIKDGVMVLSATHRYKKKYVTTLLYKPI
Chain of AMPKα1 (h) (P54619 whole entry partner): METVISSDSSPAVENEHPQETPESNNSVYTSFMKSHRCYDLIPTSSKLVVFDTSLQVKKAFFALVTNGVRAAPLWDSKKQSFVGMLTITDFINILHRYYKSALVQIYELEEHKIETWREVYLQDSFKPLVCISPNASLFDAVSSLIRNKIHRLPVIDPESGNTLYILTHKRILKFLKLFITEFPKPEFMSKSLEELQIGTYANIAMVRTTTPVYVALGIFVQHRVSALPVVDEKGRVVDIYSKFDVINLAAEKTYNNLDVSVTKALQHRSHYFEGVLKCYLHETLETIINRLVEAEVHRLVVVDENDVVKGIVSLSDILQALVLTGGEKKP

| Sequence | % activity [1] [%] | % activity [2] [%] | % activity [3] [%] | % activity [4] [%] |
| --- | --- | --- | --- | --- |
| FAKLAARLYRKALARQLGVAA [MMI-0300] | 71 | 44 | 93 | 79 |
| HRRIKAWLKKIKALARQLGVAA (Mammalian) [MMI-0500] | 35 | 37 | 27 | 46 |
| KAFAKLAARLYRKALARQLGVAA [MMI-0400] | 87 | 58 | 93 | 79 |
| YARAAARQARAKALNRQLGVA (Mammalian) [MMI-0200] | 108 | 95 | – | 98 |
